Key:
[1] = target: T1, human MSH-R (Homo sapiens, UniProt Q01726); test: activation of human MSH-R in 293 cells (adenylyl cyclase); format: cell-based; settings: 0.7 nM agouti
T1 construct: expressed in transfected cells; host or cells: human embryonic kidney 293 cells (printed '292')

[2] = system: 3T3-L1 adipocytes; test: [Ca2+]i in 3T3-L1 adipocytes (fura 2); format: cell-based; settings: for [Ca2+]i Increase over Baseline: 400 s, n = 8
Experimental: The spontaneously fusing L6 skeletal muscle cells [American Type Culture Collection (ATCC), Bethesda, MD] were grown in 75-cm^2 flasks in Dulbecco's modified Eagle's medium with 10% glucose (DMEM) supplemented with 5% fetal bovine serum (FBS, vol/vol), 5% calf serum supplemented iron enriched (CS, vol/vol, and antibiotics (50 U penicillin/ml and 5 μg of streptomycin/ml). Cultures were maintained in continuous passages (<20) by trypsinization (0.05% trypsin) of semiconfluent nonfused cells. A7r5 vascular smooth muscle cells (ATCC) were grown in the same conditions as for L6 cells. 3T3-L1 cells (ATCC) were grown in 100-mm dishes in DMEM containing 10% FBS and antibiotics. For differentiation of fibroblasts into adipocytes, confluent cells were incubated in DMEM-FBS containing 0.5 mM 3-isobutyl-1-methylxanthine (IBMX; Sigma, St. Louis, Mo.) and 0.25 μM dexamethasone (Dex; Sigma) for 60 h. IBMX and Dex were then removed, and cells remained in DMEM-FBS with 250 μg/ml geneticin and compared with nontransfected HEK-293 cells. All types of cells were maintained at 37° C. in an atmosphere containing 5% CO2 and 100% humidity. Cell culture reagents, FBS, CS, and trypsin-EDTA were obtained from GIBCO/BRL (Grand Island, N.Y.).
Viruses incorporating this vector were produced by standard methods (Lu et al., 1994). Spodoptera frugiperda cells (Sf-9) were propagated in Grace's supplemented medium containing 10% CS and 0.1% Pluronic F68 and used to produce […] viral stocks. Fifteen-liter scale production runs of murine or human agouti were produced using T. ni cells adapted to suspension (JRH Biosciences, Woodland, Calif.). T ni cells were infected 24 h postseeding at a density of 10^6 cells/ml, and conditioned media from infected cells were harvested 48 h after infection filtered through a Whatman 3 filter and purified as recently described (Willard et al., 1995).
[Ca^2+]i was measured in L6, A7r5, and HEK-293 cells (Zemel et al., 1995) as previously described and in 3T3-L1 cells as described by Klip and Ramlal (1987). Monolayers of nonfused L6 cells and confluent A7r5 cells after 14-16 h of starvation in a serum-free culture medium were rinsed with Hanks' balanced salt solution (HBSS), detached by incubation in 2 ml trypsin (0.05%) for 2-3 min at 37° C., and released by pipetting without trypsinization. Cells were harvested by centrifugation at 50 g and resuspended in 1 ml HBSS at a density of ˜10^6 cells/ml. […] [Ca^2+]i levels were then measured fluorometrically in suspensions using dual excitation (340 and 380 nm)-single emission (510 nm) fluorometry as previously described (Zemel et al., 1995). [Ca^2+]i was then calculated by the computer in the fluorometer with the equation of Grynkiewicz et al. (1985). […]

T1 sequence (Q01726 whole entry): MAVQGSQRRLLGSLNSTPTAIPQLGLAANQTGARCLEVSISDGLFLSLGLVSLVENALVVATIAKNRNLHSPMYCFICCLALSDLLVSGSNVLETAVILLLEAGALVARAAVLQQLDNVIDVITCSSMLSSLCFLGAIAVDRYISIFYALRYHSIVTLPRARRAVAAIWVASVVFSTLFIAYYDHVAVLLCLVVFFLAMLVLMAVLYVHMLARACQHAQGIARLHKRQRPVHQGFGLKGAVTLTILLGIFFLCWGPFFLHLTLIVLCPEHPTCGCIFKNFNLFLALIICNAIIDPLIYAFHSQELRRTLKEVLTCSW

B1: agouti: recombinant mouse agouti protein (131 amino acids, SEQ ID NO:2) produced with the baculovirus expression system in T. ni cells (protein, listed as Mus musculus)
chain: MDVTRLLLATLVSFLCFFTVHSHLALEETLGDDRSLRSNSSMNSLDFSSVSIVALNKKSKKISRKEAEKRKRSSKKKASMKKVARPPPPSPCVATRDSCKPPAPACCDPCASCQCRFFGSACTCRVLNPNC
inhibition of MSH-R activation [1]: No inhibition
[Ca2+]i Increase over Baseline ([2]; 5 nM Agouti): 73 ± 6 nM
[Ca2+]i Increase over Baseline ([2]; 25 nM Agouti): 33 ± 6 nM
[Ca2+]i increase over baseline (plateau) ([2]; 50 nM agouti, 400 s after agouti addition): 73 ± 6 nM
[Ca2+]i increase ([2]; 50 nM agouti, after 200 s): 44 ± 4 nM

From patent US6514747B2 (UT-Battelle, LLC, priority 1993, dated 2003)
